Experimental findings from US20190015473A1 (MIT, published 2019) are described below.

This test addresses T1, Sin3A, endogenous in Neuro2A cells (UniProt Q60520 1-1274, limits assumed).
T1 sequence (looked up): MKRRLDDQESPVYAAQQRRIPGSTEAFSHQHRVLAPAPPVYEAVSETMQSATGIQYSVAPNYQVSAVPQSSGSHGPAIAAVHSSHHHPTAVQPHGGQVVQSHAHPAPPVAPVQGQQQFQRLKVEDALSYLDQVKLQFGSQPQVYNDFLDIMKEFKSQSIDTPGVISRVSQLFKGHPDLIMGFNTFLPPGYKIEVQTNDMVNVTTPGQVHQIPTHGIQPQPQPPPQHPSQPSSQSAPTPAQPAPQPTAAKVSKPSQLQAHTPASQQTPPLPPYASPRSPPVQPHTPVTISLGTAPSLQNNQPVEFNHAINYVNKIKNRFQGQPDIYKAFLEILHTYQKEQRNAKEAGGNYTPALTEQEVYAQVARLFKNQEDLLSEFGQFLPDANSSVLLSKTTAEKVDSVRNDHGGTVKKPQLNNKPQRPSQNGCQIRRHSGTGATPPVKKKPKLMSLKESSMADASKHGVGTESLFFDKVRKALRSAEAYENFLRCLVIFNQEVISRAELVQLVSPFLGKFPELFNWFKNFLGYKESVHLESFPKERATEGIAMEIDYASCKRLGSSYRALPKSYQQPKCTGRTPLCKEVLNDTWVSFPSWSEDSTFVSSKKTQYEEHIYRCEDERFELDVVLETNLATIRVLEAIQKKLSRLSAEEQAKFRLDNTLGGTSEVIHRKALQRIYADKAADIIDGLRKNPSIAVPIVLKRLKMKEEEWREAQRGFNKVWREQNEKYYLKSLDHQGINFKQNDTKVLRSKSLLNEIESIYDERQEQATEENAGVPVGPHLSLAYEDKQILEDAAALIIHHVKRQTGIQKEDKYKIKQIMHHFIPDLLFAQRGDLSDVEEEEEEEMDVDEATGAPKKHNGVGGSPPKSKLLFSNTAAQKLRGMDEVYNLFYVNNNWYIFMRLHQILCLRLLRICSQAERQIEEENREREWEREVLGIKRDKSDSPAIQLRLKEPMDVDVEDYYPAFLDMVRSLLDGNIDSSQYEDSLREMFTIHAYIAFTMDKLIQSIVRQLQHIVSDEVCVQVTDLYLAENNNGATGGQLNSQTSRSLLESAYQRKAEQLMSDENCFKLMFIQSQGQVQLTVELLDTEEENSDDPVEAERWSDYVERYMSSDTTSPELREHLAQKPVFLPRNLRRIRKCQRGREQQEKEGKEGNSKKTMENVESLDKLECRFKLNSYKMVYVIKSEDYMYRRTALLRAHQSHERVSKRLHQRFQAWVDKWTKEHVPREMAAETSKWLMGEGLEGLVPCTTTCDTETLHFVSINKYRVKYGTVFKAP
Nature of the test: co-immunoprecipitation (anti-Flag) from transfected N2A cells, western blot. How it is done:
Brain tissues or cell pellets were lysed in 50 mM Tris-HCl (pH8.0), 150 mM NaCl, 1 mM EDTA, 1% NP-40, and complete protease inhibitor cocktail (Roche) with 20 strokes using the Dounce tight homogenizer. After centrifugation at 10000×g twice for 10 min, supernatants were subjected to co-immunoprecipitation or western blot analysis (Bio-rad). Two micrograms of anti-HDAC2 antibody (ab12169) or 15 μL of anti-Flag M2 affinity gels (Sigma) were used for immunoprecipitations. The antibodies used for immunoblotting were anti-HDAC2 (1 μg/mL, ab12169), anti-Sp3 (1 μg/mL, sc-644 X), anti-Sin3A (1 μg/mL, Abcam; ab3479), and […] (1:500, Sigma; F2043).
If the divergent C-terminus of HDAC2 alone is capable of binding to Sp3, the HDAC2-Sp3 interaction may potentially be inhibited through over-expression of this domain. To test this, the C-terminal domain of either HDAC2 (termed 2C) or HDAC1 (termed 1C) fused with mCherry, or mCherry alone, was transfected into neuronal N2A cells. Using co-IP experiments it was shown that 2C, but not 1C or mCherry alone, robustly bound to endogenous Sp3 (FIG. 6A). Importantly, binding of 2C to Sin3A, a well characterized partner of the HDAC1/2 complexes that controls cell cycle progression, was not detected.
(In general: A western blot detects proteins with antibodies after separation by electrophoresis.)

B1: C-terminal domain of HDAC2 (termed 2C) fused with mCherry, flag-tagged (other, UniProt Q92769 390-488, looked up)
chain: VHEDSGDEDGEDPDKRISIRASDKRIACDEEFSDSEDEGEGGRRNVADHKKGAKKARIEEDKKETEDKKTDVKEEDKSKDNSGEKTDTKGTKSEQLSNP
notes: The part order follows the printed name 'mCherry-2C'; the Flag position is unknown; also called mCherry-2C; HDAC2 C-terminal fragment (2C); not shown: Flag tag; mCherry (engineered red fluorescent protein)
Regarding B1, the binding result is listed as “no binding”.
